The values below come from PMC5685503.

This assay addresses isolated phosphodiesterase (PDE) domain of RhoPDE (Salpingoeca rosetta) (UniProt F2TZN0). As to the kind of experiment: SEC.

The stoichiometry N is a count of units in the complex or per binding partner.

Regarding “isolated phosphodiesterase (PDE) domain of RhoPDE (from UniProt F2TZN0 386-702) (domain or fragment)”, the stoichiometry N amounted to 2.
